First the molecules themselves.
B1: NP8 (antibody, V domains shown)
VH: EVQLVESGGGLVQPGGSLRLSCAASGFTINSFGIHWVRQAPGKGLEWVAGIGPFGGSTFYADSVKGRFTISADTSKNTAYLQMNSLRAEDTAVYYCARGFYWFDYWGQGTLVTVSS
VL: DIQMTQSPSSLSASVGDRVTITCRASQDVDDSVAWYQQKPGKAPKLLIYWTRYLYSGVPSRFSGSGSGTDFTLTISSLQPEDFATYYCQQGYNYPLTFGQGTKVEIKR
B2: NP14 (antibody, V domains shown)
VH: EVQLVESGGGLVQPGGSLRLSCAASGFTIDNGGIHWVRQAPGKGLEWVASIWPSWGSTSYADSVKGRFTISADTSKNTAYLQMNSLRAEDTAVYYCARFNFGVFGVMDYWGQGTLVTVSS
VL: B1 VL with D31N, S32D, W50G, T51P, Y53G, G91Y, Y92S, N93S, Y94W
B3: NP9 (antibody, V domains shown)
VH: EVQLVESGGGLVQPGGSLRLSCAASGFTINNGWIHWVRQAPGKGLEWVAGIGPYWGFTSYADSVKGRFMISADTSKNTAYLQMNSLRAEDTAVYYCARFDSDHDHHYSYYYYYDNGYMDYWGQGTLVTVSS
VL: B1 VL with D30W, D31F, W50G, R52T, Y53S, G91Y, Y92F
B4: NP13 (antibody, V domains shown)
VH: EVQLVESGGGLVQPGGSLRLSCAASGFTINNYGIHWVRQAPGKGLEWVASIGPYGGSTYYADSVKGRFTISADTSKNTAYLQMNSLRAEDTAVYYCARFGYFNWLDMDYWGQGTLVTVSS
VL: DIQMTQSPSSLSASVGDRVTITCRASQDVGYWVAWYQQKPGKAPKLLISSASGLYSGVPSRFSGSGSGTDFTLTISSLQPEDFATYYCQQGWDWPITFGQGTKVEIKR
B5: NP4 (antibody, V domains shown)
VH: EVQLVESGGGLVQPGGSLRLSCAASGFTISNSSIHWVRQAPGKGLEWVAGIGPSGGYTFYADSVKGRFTISADTSKNTAYLQMNSLRAEDTAVYYCARFHSHNSYYSYSHYGYMDYWGQGTLVTVSS
VL: B4 VL with Y31W, W32G, S50G, A51P, G53S, G91Y, W92F, D93N, W94Y

Substitutions are numbered along the chain they refer to.

The assay has as its target NPA3 (influenza A virus A/Aalborg/INS132/2009 …, UniProt P68042 1-489). Description: ELISA on recombinant NP. (In general: ELISA stands for enzyme-linked immunosorbent assay.)
For the molecule B1, the concentration for a half-maximal effect (EC50) was 0.07 nM. The same measure for B2: 19.7 nM.

Turning to B3, the EC50 was 4.38 nM.

B4: the EC50 amounted to 9.36 nM. The same measure for B5: 10.1 nM.

Usually EC50 stands for the midpoint of the concentration-response curve.

Values taken from patent US20230212554A1 (published 2023).
